From patent US20060240053A1 (L OREAL, published 2006)

Biological target: the molecule itself
Experiment: BS3 chemical crosslinking, then gel filtration and SDS-PAGE (self-association)
Protocol: A study of the crosslinking using BS3 (Pierce) is carried out on activated SASPase (SEQ ID NO: 6), obtained by acidification and purification by exclusion chromatography (gel filtration) of the recombinant fusion protein GST-SASPase Δ1-84.
1 μg of BS3 in 60 μl of 50 mM phosphate buffer, pH 7, containing 150 mM NaCl, 0.1% TX100 and 5 mM EDTA is added to the activated SASPase (SEQ ID NO: 6) obtained in example III, placed in ice. A control sample free of BS3 is also prepared. After 90 min, 2 μl of 1 M Tris-HCl, pH 8, are introduced into the reaction media in order to stop the reaction. The products obtained are then analyzed by gel filtration and by SDS-PAGE electrophoresis.

B1: activated SASPase (SEQ ID NO: 6) (enzyme)
chain: ANSMGKGYYLKGKIGKVPVRFLVDSGAQVSVVHPNLWEEVTDGDLDTLQPFENVVKVANGAEMKILGVWDTAVSLGKLKLKAQFLVANASAEEAIIGTDVLQDHNAILDFEHRTCTLKGKKFRLLPVGGSLEDEFDLE
notes: also called 12 kD SASPase
binding result: binds
